Ends that are not written are not given here. FAM = carboxyfluorescein (FAM) fluorescent label
T1: C-reactive protein (UniProt P02741 19-224)
T1 construct: also called CRP
T1 sequence (looked up): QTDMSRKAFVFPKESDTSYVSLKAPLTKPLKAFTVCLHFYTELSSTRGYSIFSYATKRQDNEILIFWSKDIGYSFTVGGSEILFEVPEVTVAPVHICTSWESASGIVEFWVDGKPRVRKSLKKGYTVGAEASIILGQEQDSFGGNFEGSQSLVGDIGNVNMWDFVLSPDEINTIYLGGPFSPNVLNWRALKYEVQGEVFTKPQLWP

B1: H2 peptide (peptide)
peptide: VYYCAREPTGTGIYFDVWGK
modifications: not fully specified (N-terminus)
notes: Synthetic 20-mer homologous to the FR3 or FR4 region of the heavy chain; The label differs between experiments; also called H2 switching peptide; fourth peptide compound H2
B2: L2 peptide (peptide)
peptide: {FAM}-VYYCFQGSHVPFTK
notes: Synthetic 14-mer homologous to the FR3 or FR4 region of the light chain; also called L2 switching peptide; second peptide compound L2
B3: H1 peptide (peptide)
peptide: SYWIHWVKQRPGQGLEWIGE
modifications: not fully specified (N-terminus)
notes: Synthetic 20-mer homologous to the FR2 region of the heavy chain; The fluorescent label differs between experiments; also called H1 switching peptide; third peptide compound H1
B4: L1 peptide (peptide)
peptide: TYLEWYPQKPGQSPKLLIYK
modifications: not fully specified (N-terminus)
notes: Synthetic 20-mer homologous to the FR2 region of the light chain; The label differs between experiments; also called L1 switching peptide; first peptide compound L1

How the values were obtained:
[1] = target: T2, anti-Inf-A binding antibody; experiment: dissociation of labelled peptide from anti-Inf-A antibody on treatment with Inf-A; fluorescence
T2 construct: also called anti-Inf-A antibody; anti-inf A antibody

[2] = target: T3, anti-Inf-B binding antibody; experiment: dissociation of labelled peptide from anti-Inf-B antibody on treatment with Inf-B; fluorescence
T3 construct: also called anti-Inf-B antibody

Anti-HRP antibody(r) [3] = target: T4, Anti-HRP antibody(r); experiment: labelled peptide on antibody immobilised on microplate; antigen HRP
T4 construct: Rabbit IgG, immobilised on a microplate; also called rabbit anti-HRP antibodies; anti-HRP antibody from a rabbit

Anti-HRP antibody(r) [4] = target: T4, Anti-HRP antibody(r); experiment: fluorescence in solution against HRP concentration (0.3 to 100 µM); peptide on immobilised rabbit anti-HRP antibody
Source text: In this experiment, an anti-HRP antibody from a rabbit immobilized on a microplate was used as the binding antibody and HRP was used as the antigen.

protein-A = protein-A (UniProt P38507 37-477); experiment: labelled peptide on protein immobilised on microplate; fluorescence at bottom
C-reactive protein = target: T1, C-reactive protein; experiment: as above
BSA = target: T5, BSA (UniProt P02769 25-607); experiment: as above
T5 construct: also called bovine serum albumin
T5 sequence (P02769 25-607 limits assumed): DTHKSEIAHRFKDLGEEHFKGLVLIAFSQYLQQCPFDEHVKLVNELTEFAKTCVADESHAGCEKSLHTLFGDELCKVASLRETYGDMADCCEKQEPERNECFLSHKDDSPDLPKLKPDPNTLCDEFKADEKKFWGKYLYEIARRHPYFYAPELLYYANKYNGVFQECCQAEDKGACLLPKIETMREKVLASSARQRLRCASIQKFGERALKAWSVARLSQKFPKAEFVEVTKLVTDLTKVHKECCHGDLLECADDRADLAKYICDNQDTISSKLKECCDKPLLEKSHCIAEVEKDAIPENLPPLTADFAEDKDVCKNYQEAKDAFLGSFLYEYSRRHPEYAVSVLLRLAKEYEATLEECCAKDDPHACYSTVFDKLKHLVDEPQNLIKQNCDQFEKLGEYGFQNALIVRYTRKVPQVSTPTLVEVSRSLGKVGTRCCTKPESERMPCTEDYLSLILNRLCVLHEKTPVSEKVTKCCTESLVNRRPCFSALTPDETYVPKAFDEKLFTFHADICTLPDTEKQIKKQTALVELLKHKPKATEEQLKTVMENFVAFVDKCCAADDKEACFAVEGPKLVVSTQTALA

Anti-hCG antibody(m) = target: T6, Anti-hCG antibody(m); experiment: labelled peptide on antibody immobilised on microplate; antigen hCG
T6 construct: also called mouse IgG (hCG)

Anti-CRP antibody(r) = target: T7, Anti-CRP antibody(r); experiment: labelled peptide on antibody immobilised on microplate; antigen CRP
T7 construct: also called rabbit IgG (CRP)

[5] = target: T3, anti-Inf-B binding antibody; experiment: SPR biosensor, anti-Inf-B antibody immobilised on Au substrate, BSA blocked
[6] = target: T2, anti-Inf-A binding antibody; experiment: SPR biosensor, anti-Inf-A antibody immobilised on Au substrate, BSA blocked
Source text: Referring to FIG. 17A, anti-Inf-A and anti-Inf-B binding antibodies were immobilized on an Au substrate using an SPR biosensor, and the blank surface of the substrate was blocked with a BSA solution to treat Inf-A and Inf-B.

Anti-HBsAg antibody(g) = target: T8, Anti-HBsAg antibody(g); experiment: labelled peptide on antibody immobilised on microplate; antigen HBsAg
T8 construct: also called anti-HBsAg antibodies from goats; goat IgG (HBsAg)

Anti-HRP antibody(r) [7] = target: T4, Anti-HRP antibody(r); experiment: labelled peptide on immobilised rabbit anti-HRP antibody, papain cleavage
L2 peptide = target: B2; experiment: FRET on microplate: FAM-L2 immobilised, TAMRA-H1 incubated
H2 peptide = target: B1; experiment: FRET on microplate: FAM-L1 immobilised, TAMRA-H2 incubated

Row | Binder | relative change in fluorescence signal [1] | relative change in fluorescence signal [2] | change (%) of fluorescence at bottom (B) of microplate (Anti-HRP antibody(r) [3]) | change (%) of fluorescence in solution (S) (Anti-HRP antibody(r) [3]) | fluorescence intensity at bottom (B) of microplate after antigen binding (Anti-HRP antibody(r) [3]) | fluorescence intensity at bottom (B) of microplate before antigen binding (Anti-HRP antibody(r) [3]) | fluorescence intensity in solution (S) after antigen binding (Anti-HRP antibody(r) [3]) | fluorescence intensity in solution (S) before antigen binding (Anti-HRP antibody(r) [3]) | Kd (Anti-HRP antibody(r) [4]) | binding result (protein-A) | binding result (C-reactive protein) | binding result (BSA) | change (%) of fluorescence at bottom (B) of microplate (Anti-hCG antibody(m)) | change (%) of fluorescence in solution (S) (Anti-hCG antibody(m)) | fluorescence intensity at bottom (B) of microplate after antigen binding (Anti-hCG antibody(m)) | fluorescence intensity at bottom (B) of microplate before antigen binding (Anti-hCG antibody(m)) | fluorescence intensity in solution (S) after antigen binding (Anti-hCG antibody(m)) | fluorescence intensity in solution (S) before antigen binding (Anti-hCG antibody(m)) | change (%) of fluorescence at bottom (B) of microplate (Anti-CRP antibody(r)) | change (%) of fluorescence in solution (S) (Anti-CRP antibody(r)) | further results
1 | B1 | 352% | 199% | -85.2% | 698% | 1810 | 122000 | 18100 | 2270 | 3.11 µM | no binding | no binding | no binding | -88.5% | 416% | 23300 | 23300 | 8540 | 1650 | -39.5% | 677% | fluorescence intensity at bottom (B) of microplate after antigen binding (Anti-CRP antibody(r)): 22200; fluorescence intensity at bottom (B) of microplate before antigen binding (Anti-CRP antibody(r)): 22200; fluorescence intensity in solution (S) after antigen binding (Anti-CRP antibody(r)): 16300; fluorescence intensity in solution (S) before antigen binding (Anti-CRP antibody(r)): 2100; Kd [5]: 56 µM; Kd [6]: 37 µM; change (%) of fluorescence at bottom (B) of microplate (Anti-HBsAg antibody(g)): -36.1%; change (%) of fluorescence in solution (S) (Anti-HBsAg antibody(g)): 412%; fluorescence intensity at bottom (B) of microplate after antigen binding (Anti-HBsAg antibody(g)): 18800; fluorescence intensity at bottom (B) of microplate before antigen binding (Anti-HBsAg antibody(g)): 29400; fluorescence intensity in solution (S) after antigen binding (Anti-HBsAg antibody(g)): 9140; fluorescence intensity in solution (S) before antigen binding (Anti-HBsAg antibody(g)): 1780; decrease of fluorescence intensity at the bottom of the microplate after papain treatment (Anti-HRP antibody(r) [7]): 58.7%; increase of fluorescence intensity in the solution after papain treatment (Anti-HRP antibody(r) [7]): 2360%
2 | B2 | 225% | 151% | -74.5% | 597% | 3210 | 12600 | 16100 | 2320 | 1.48 µM | no binding | no binding | no binding | -90.7% | 456% | 3070 | 33200 | 9400 | 1690 | -44.9% | 883% | fluorescence intensity at bottom (B) of microplate after antigen binding (Anti-CRP antibody(r)): 11200; fluorescence intensity at bottom (B) of microplate before antigen binding (Anti-CRP antibody(r)): 20400; fluorescence intensity in solution (S) after antigen binding (Anti-CRP antibody(r)): 32200; fluorescence intensity in solution (S) before antigen binding (Anti-CRP antibody(r)): 3270; change (%) of fluorescence at bottom (B) of microplate (Anti-HBsAg antibody(g)): -64.8%; change (%) of fluorescence in solution (S) (Anti-HBsAg antibody(g)): 574%; fluorescence intensity at bottom (B) of microplate after antigen binding (Anti-HBsAg antibody(g)): 9860; fluorescence intensity at bottom (B) of microplate before antigen binding (Anti-HBsAg antibody(g)): 28000; fluorescence intensity in solution (S) after antigen binding (Anti-HBsAg antibody(g)): 15400; fluorescence intensity in solution (S) before antigen binding (Anti-HBsAg antibody(g)): 2280; decrease of fluorescence intensity at the bottom of the microplate after papain treatment (Anti-HRP antibody(r) [7]): 72.5%; increase of fluorescence intensity in the solution after papain treatment (Anti-HRP antibody(r) [7]): 2450%
3 | B3 | 130% | 145% | -87.7% | 746% | 1450 | 11800 | 22000 | 2600 | 1.65 µM | no binding | no binding | no binding | -65.6% | 206% | 1940 | 5650 | 3920 | 1280 | -26.8% | 152% | fluorescence intensity at bottom (B) of microplate after antigen binding (Anti-CRP antibody(r)): 3600; fluorescence intensity at bottom (B) of microplate before antigen binding (Anti-CRP antibody(r)): 4910; fluorescence intensity in solution (S) after antigen binding (Anti-CRP antibody(r)): 5660; fluorescence intensity in solution (S) before antigen binding (Anti-CRP antibody(r)): 2240; change (%) of fluorescence at bottom (B) of microplate (Anti-HBsAg antibody(g)): -58.9%; change (%) of fluorescence in solution (S) (Anti-HBsAg antibody(g)): 410%; fluorescence intensity at bottom (B) of microplate after antigen binding (Anti-HBsAg antibody(g)): 4620; fluorescence intensity at bottom (B) of microplate before antigen binding (Anti-HBsAg antibody(g)): 11200; fluorescence intensity in solution (S) after antigen binding (Anti-HBsAg antibody(g)): 11500; fluorescence intensity in solution (S) before antigen binding (Anti-HBsAg antibody(g)): 2240; decrease of fluorescence intensity at the bottom of the microplate after papain treatment (Anti-HRP antibody(r) [7]): 84.3%; increase of fluorescence intensity in the solution after papain treatment (Anti-HRP antibody(r) [7]): 2180%; binding result (L2 peptide): binds
4 | B4 | 176% | 180% | -87.3% | 357% | 1990 | 15600 | 12300 | 2690 | 3.29 µM | no binding | no binding | no binding | -61.6% | 187% | 1780 | 4630 | 3580 | 1250 | -48.6% | 778% | fluorescence intensity at bottom (B) of microplate after antigen binding (Anti-CRP antibody(r)): 3460; fluorescence intensity at bottom (B) of microplate before antigen binding (Anti-CRP antibody(r)): 6720; fluorescence intensity in solution (S) after antigen binding (Anti-CRP antibody(r)): 6500; fluorescence intensity in solution (S) before antigen binding (Anti-CRP antibody(r)): 741; Kd [5]: 14 µM; Kd [6]: 14 µM; change (%) of fluorescence at bottom (B) of microplate (Anti-HBsAg antibody(g)): -51.3%; change (%) of fluorescence in solution (S) (Anti-HBsAg antibody(g)): 638%; fluorescence intensity at bottom (B) of microplate after antigen binding (Anti-HBsAg antibody(g)): 5390; fluorescence intensity at bottom (B) of microplate before antigen binding (Anti-HBsAg antibody(g)): 11100; fluorescence intensity in solution (S) after antigen binding (Anti-HBsAg antibody(g)): 20500; fluorescence intensity in solution (S) before antigen binding (Anti-HBsAg antibody(g)): 2780; decrease of fluorescence intensity at the bottom of the microplate after papain treatment (Anti-HRP antibody(r) [7]): 84.8%; increase of fluorescence intensity in the solution after papain treatment (Anti-HRP antibody(r) [7]): 1030%; binding result (H2 peptide): binds

— US20250341517A1 (published 2025)
